In publication doi:10.1101/2024.03.19.585385 (bioRxiv, 2024):

Molecular target: T1, RNAP α subunit (αI) (T. thermophilus, UniProt Q5SHR6 1-315)
T1 sequence (looked up): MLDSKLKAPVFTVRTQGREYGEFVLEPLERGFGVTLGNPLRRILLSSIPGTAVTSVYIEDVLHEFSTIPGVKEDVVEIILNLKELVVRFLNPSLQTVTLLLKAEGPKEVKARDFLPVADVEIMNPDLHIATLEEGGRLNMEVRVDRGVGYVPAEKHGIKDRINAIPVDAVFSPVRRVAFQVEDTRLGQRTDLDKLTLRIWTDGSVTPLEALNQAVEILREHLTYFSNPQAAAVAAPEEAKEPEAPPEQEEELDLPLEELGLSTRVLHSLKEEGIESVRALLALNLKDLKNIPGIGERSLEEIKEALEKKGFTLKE
Experiment: cryo-EM structure

B1: ribosomal protein S10 (NusE) (natural protein, T. thermophilus, UniProt Q5SHN7 1-105, looked up)
chain: MPKIRIKLRGFDHKTLDASAQKIVEAARRSGAQVSGPIPLPTRVRRFTVIRGPFKHKDSREHFELRTHNRLVDIINPNRKTIEQLMTLDLPTGVEIEIKTVGGGR
- binding result: binds
